Substitutions are numbered along the chain they refer to.

Consider three molecules from PMC10631681, “The structural basis of mRNA recognition and binding by yeast pseudouridine synthase PUS1”.

One series concerns the target T1, PUS1 D134A (His-tagged) (Saccharomyces cerevisiae, UniProt Q12211 1-544, D134A).
T1 sequence: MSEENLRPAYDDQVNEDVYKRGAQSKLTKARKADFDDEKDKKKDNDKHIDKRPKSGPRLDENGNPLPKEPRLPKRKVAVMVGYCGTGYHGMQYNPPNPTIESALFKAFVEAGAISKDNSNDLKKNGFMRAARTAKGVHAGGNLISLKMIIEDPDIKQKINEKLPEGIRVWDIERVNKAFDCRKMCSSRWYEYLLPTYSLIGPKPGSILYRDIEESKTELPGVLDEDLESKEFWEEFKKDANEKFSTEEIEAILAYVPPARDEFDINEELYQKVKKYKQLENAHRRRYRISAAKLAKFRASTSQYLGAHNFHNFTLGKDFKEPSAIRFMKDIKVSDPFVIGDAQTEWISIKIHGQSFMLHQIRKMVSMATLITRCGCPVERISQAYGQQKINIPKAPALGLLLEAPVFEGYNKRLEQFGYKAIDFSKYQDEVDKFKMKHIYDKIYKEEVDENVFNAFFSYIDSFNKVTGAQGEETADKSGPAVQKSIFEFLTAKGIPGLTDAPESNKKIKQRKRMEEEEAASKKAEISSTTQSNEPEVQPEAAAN
In words: EMSA; 100 nM RNA, increasing protein; EMSA: 100 nM R263 with 100 nM-1 uM PUS1 in 100 ul under PUS1 activity assay conditions (buffer not in the material), 90 min, SYBR Gold stain; crystals: 7R9G 0.05 M ammonium sulfate, 0.05 M Bis-Tris pH 6.0, 26% pentaerythritol ethoxylate, 4 C; 7R9F 0.2 M K/Na tartrate, 18% PEG 3350, 25 C. The settings on record: protein: recombinant; tags: N-terminal 6xHis; predicted short stem-loop; strand state in EMSA not determined.

Series [1] concerns the target T2, PUS1 wild type (His-tagged) (Saccharomyces cerevisiae, UniProt Q12211 1-544).
T2 sequence: T1 sequence with A134D
Described as above. The settings on record: protein: recombinant; tags: N-terminal 6xHis; predicted short stem-loop; strand state in EMSA not determined.

The target of series [2] is T3, PUS1 wild type (tagless, crystal) (Saccharomyces cerevisiae, UniProt Q12211 1-544).
T3 sequence: T1 sequence with A134D
In words: X-ray crystallography (2.9 A); EMSA: 100 nM R263 with 100 nM-1 uM PUS1 in 100 ul under PUS1 activity assay conditions (buffer not in the material), 90 min, SYBR Gold stain; crystals: 7R9G 0.05 M ammonium sulfate, 0.05 M Bis-Tris pH 6.0, 26% pentaerythritol ethoxylate, 4 C; 7R9F 0.2 M K/Na tartrate, 18% PEG 3350, 25 C. Conditions: protein: recombinant; tags: none; chain copies: 2; self-duplex of 2 copies, same duplex as R263. (A gel shift assay detects complexes by their altered migration in electrophoresis.)

Series [3] has as its target T4, PUS1 D134A (tagless, crystal) (Saccharomyces cerevisiae, UniProt Q12211 1-544, D134A).
T4 sequence: T1 sequence
Briefly: X-ray crystallography (2.4 A); sulfate ion near RNA 5' end; EMSA: 100 nM R263 with 100 nM-1 uM PUS1 in 100 ul under PUS1 activity assay conditions (buffer not in the material), 90 min, SYBR Gold stain; crystals: 7R9G 0.05 M ammonium sulfate, 0.05 M Bis-Tris pH 6.0, 26% pentaerythritol ethoxylate, 4 C; 7R9F 0.2 M K/Na tartrate, 18% PEG 3350, 25 C. Conditions: protein: recombinant; tags: none; chain copies: 2; self-duplex of 2 copies; positions 2-10 paired with non-Watson-Crick pairs (two central G:G reverse Hoogsteen); 3' ends disordered.

B1: R263 (EMSA) (ssRNA)
RNA: AAAUCGGGAUUCCGGAUA
Take B1: the binding result (with PUS1 D134A (His-tagged); in series [1]) was “binds” in each case.

B2: R340 duplex (crystal) (dsRNA)
RNA 1: UAAUCGGGAUUCCGGAUA
RNA 2: UAAUCGGGAUUCCGGAUA
modifications: 5-fluorouracil at position 1 (written as U)
For the molecule B2, the binding result in series [2] was “binds”.

B3: R263 duplex (crystal) (dsRNA)
RNA 1: AAAUCGGGAUUCCGGAUA
RNA 2: AAAUCGGGAUUCCGGAUA
For B3, the binding result in series [3] is on record as “binds”.
